In patent US20240252795A1, “INGESTIBLE DEVICE FOR DELIVERY OF THERAPEUTIC AGENT TO THE GASTROINTESTINAL TRACT” (BIORA THERAPEUTICS, INC., priority 2018, published 2024):
Several values for one entry are separate records, joined by “and”; a condition that tells them apart may be missing. Equal entries are not always repeated. Where two headings read alike, the source gives them in different places.

Columns and labels:
[1] = PK of regular human insulin (NOVOLIN R) after SC or intra-jejunal jet delivery, blood insulin levels; assay type: in vivo, swine; conditions: for Cmax / Tmax: IJ administration by jet delivery device, blood insulin
Description: A total of 18 Yorkshire female swine in good health and weighing 60-70 kg each were included in this study. Swine were divided into two groups with 9 animals per group. […] A sham surgical laparotomy was performed. […] The jet delivery device was configured with the single nozzle in an axial orientation.
Swine were divided into two groups with 9 animals per group. […] In all 18 animals, a laparotomy procedure was performed to expose the abdominal cavity. Animals remained under anesthesia during the entire procedure for the PK/PD study.
For the laparotomy in group 02, a small segment of the jejunal mucosa and serosa was exposed by midline laparotomy and the jet delivery device was inserted through antimesenteric incision.
(§1) Blood samples were kept on wet ice until centrifugation and separation of plasma. […] Glucose was monitored every five (5) minutes during the study by portable glucose analyzer (StatStrip (SS) hospital glucose monitoring system (Nova Biomedical, Waltham, MA)). At each time point, approximate 0.1 mL of blood was drawn and immediately placed on a glucose monitoring test strip, and the whole blood glucose concentration was measured by the SS in triplicate.
The animals were anesthetized for the entire ECP.

blood glucose = assay: Euglycemic clamp procedure: blood glucose and dextrose infusion rate after NOVOLIN R; assay type: in vivo, swine; conditions: for mean blood glucose level: euglycemic clamp
Description: as §1
A euglycemic clamp procedure (ECP) was employed to compare pharmacokinetics and pharmacodynamics of regular human Insulin (NOVOLIN® R) delivered subcutaneously (SC) in the neck versus intra-jejunally (IJ) by the jet delivery device in the small intestine. ECP was used to quantify the amount of glucose required to maintain normoglycemia after exogenous bolus of insulin. […] The animals were anesthetized for the entire ECP.

[2] = pig, in vivo
[3] = SC administration, swine, group average
[4] = SC administration, swine, individual animals

NOVOLIN® R: regular human insulin (NOVOLIN® R)
Cmax ([1]; Average of 8 animals): 77.40 uIU/mL
Tmax ([1]; Average of 8 animals): 55.63 min
Cmax ([1]; individual animal): 40.93 uIU/mL and 96.77 uIU/mL and 5.03 uIU/mL and 7.96 uIU/mL and 48.77 uIU/mL and 85.38 uIU/mL and 207.96 uIU/mL and 126.39 uIU/mL
Tmax ([1]; individual animal): 20 min and 50 min and 90 min (2×) and 40 min (3×)
blood insulin level in animal 18P18 ([1]; SC administration group, compared with rest of group): significantly higher than the rest of the animals in the group
Cmax of blood insulin, Average [1, 3]: 202.94 uIU/mL
Tmax of blood insulin, Average [1, 3]: 1.452 h
Cmax of blood insulin [1, 4]: 451.00 uIU/mL and 60.74 uIU/mL and 354.00 uIU/mL and 356.60 uIU/mL and 65.71 uIU/mL and 59.18 uIU/mL and 73.34 uIU/mL
Tmax of blood insulin [1, 4]: 50 min (2×) and 180 min and 105 min and 30 min and 120 min
maximum plasma concentration Cmax, SC group compared with IJ group ([1]; SC versus IJ administration): higher than that of the IJ administration group
time to maximum plasma concentration (Tmax) ([1]; jejunum (IJ) administration via jet delivery device, swine, group mean): 0.9272 h
mean blood glucose level (blood glucose; IJ administration group): 89.6 mg/dL
mean blood glucose level (blood glucose; SC administration group): 83.5 mg/dL
mean dextrose infusion rate, IJ versus SC group (blood glucose; from 75 minutes to 420 minutes post-administration): higher in the SC administration group

dulaglutide: long-acting GLP-1 receptor agonist, GLP-1 analogue linked to modified human IgG4 Fc, about 63 kDa
Bioavailability relative to IV [2]: 26.51%
Bioavailability relative to SC [2]: 49.11%
plasma level in one animal in Group 1 (no. 8487; ID) [2]: below the limit of detection
(AUC)T0-T240 h ± SEM ([2]; 1.2 mg): 4355.86 ng·h/mL
AUCID (mean ± SEM) ([2]; 1.2 mg): 3890.00 ± 94.73 ng·h/mL
Cmax ([2]; 1.2 mg): 70.65 ng
Tmax ([2]; 1.2 mg): 8 h
Bioavailability relative to IV ([2]; iv): 100%
(AUC)T0-T240 h ± SEM ([2]; iv, 1.2 mg): 16429.33 ng·h/mL
Cmax ([2]; iv, 1.2 mg): 632.93 ng
Tmax ([2]; iv, 1.2 mg): 1 h
Bioavailability relative to SC ([2]; sc): 100%
(AUC)T0-T240 h ± SEM ([2]; sc, 1.2 mg): 8869 ng·h/mL
Cmax ([2]; sc, 1.2 mg): 141.3 ng
Tmax ([2]; sc, 1.2 mg): 6 h
